Measured values: article PMC11529722 (Science Advances, 2024)

Target: valosin-containing protein (VCP), histidine-tagged (UniProt P55072 1-806)
Assay: BLI

valosin-containing protein (VCP), histidine-tagged, sequence (P55072 whole entry): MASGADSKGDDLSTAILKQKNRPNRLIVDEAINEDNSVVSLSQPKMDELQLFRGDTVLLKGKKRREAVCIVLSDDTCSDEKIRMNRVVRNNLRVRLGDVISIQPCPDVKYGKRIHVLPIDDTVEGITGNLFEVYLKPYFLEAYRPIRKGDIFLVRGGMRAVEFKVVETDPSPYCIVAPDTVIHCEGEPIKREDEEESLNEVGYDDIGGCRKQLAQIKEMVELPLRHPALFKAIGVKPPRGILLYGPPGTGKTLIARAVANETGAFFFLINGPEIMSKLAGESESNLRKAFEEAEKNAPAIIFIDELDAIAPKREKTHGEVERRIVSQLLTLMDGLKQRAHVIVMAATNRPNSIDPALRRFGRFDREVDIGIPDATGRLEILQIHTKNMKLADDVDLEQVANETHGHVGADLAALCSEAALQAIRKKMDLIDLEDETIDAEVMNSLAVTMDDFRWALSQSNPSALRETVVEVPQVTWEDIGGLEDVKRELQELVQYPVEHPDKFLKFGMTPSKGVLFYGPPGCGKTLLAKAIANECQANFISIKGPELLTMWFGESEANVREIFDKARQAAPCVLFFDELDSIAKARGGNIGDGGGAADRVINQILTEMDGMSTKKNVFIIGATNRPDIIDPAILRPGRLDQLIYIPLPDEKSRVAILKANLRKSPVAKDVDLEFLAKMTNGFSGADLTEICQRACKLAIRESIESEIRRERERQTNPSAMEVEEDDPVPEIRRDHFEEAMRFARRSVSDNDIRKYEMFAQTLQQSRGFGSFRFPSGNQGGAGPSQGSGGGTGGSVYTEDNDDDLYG

B1: P1, protein-like polymer (PLP) with HVLVMSATRR peptide side chains (other)
peptide: HVLVMSATRR
modifications: N terminus conjugated to N-(hexanoic acid)-exo-5-norbornene-2,3-dicarboximide, polymerised through the norbornene (ROMP) into the polymer backbone
Q: What does the source list for B1?
A: Kd: 92 nM; koff: 2.5e-05 s⁻¹
